The text below walks through data of PMC3777401.

The target in series [1] is T1, FLAG-CTCF-6xHis (UniProt Q61164 1-736).
T1 sequence: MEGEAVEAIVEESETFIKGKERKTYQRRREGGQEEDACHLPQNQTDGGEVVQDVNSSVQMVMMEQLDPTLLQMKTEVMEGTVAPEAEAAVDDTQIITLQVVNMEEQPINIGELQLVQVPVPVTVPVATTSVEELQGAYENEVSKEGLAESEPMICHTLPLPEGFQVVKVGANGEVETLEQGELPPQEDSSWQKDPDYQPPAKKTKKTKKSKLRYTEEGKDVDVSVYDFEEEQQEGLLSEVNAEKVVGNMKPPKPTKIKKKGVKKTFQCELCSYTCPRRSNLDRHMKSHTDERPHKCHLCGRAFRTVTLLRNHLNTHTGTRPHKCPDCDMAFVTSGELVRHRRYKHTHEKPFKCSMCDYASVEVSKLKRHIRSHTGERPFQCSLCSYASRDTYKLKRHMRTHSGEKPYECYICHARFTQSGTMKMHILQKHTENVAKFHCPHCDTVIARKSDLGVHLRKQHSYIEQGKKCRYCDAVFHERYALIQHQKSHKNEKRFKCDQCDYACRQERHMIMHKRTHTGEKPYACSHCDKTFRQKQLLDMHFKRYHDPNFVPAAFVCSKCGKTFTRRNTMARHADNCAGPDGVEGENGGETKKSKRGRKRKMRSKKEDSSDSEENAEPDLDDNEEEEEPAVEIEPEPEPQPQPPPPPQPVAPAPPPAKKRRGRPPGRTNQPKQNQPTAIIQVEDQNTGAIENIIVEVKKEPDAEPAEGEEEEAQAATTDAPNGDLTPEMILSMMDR
Description: EMSA.

Series [2] deals with T1, FLAG-CTCF-6xHis. Nature of the series: competition.

B1: Xist_5' (dsDNA)
DNA 1: TTTGGCTTCAGATGCCTTGGAAAGATTCATGCTGCCACCTGCTGGTTTATTCAGTCTGTGTGCATCATTTATTTACTTGT
DNA 2: ACAAGTAAATAAATGATGCACACAGACTGAATAAACCAGCAGGTGGCAGCATGAATCTTTCCAAGGCATCTGAAGCCAAA
For the molecule B1, the binding result with FLAG-CTCF-6xHis [1] is given as “binds”.

B2: P2 (dsDNA)
DNA 1: GAATGTGTCTAAGATGGCGGAAGTCATGTGACCTGCCCTCTAGTGGTTTCTTTCAGTGATTTTTTTTTTGGCGGGCTTTA
DNA 2: TAAAGCCCGCCAAAAAAAAAATCACTGAAAGAAACCACTAGAGGGCAGGTCACATGACTTCCGCCATCTTAGACACATTC
For B2, in the series with FLAG-CTCF-6xHis [2], the binding result was “binds”.

B3: RS14C (dsDNA)
DNA 1: CTATGCATTAGGTTTGGGTGTTATACCCGTGTAGGCCAGCAGAGGGTGTCGGATCCCAAGGAAACCAAGTTACAGACGCC
DNA 2: GGCGTCTGTAACTTGGTTTCCTTGGGATCCGACACCCTCTGCTGGCCTACACGGGTATAACACCCAAACCTAATGCATAG
For B3, the binding result in the series with FLAG-CTCF-6xHis [1] is recorded as “binds”.

B4: P1 (dsDNA)
DNA 1: TTGTGGCCACTCCTCTTCTGGTCTCTCCGCCTTCAGCGCCGCGGATCAGTTAAAGGCGTGCAACGGCTTGCTCCAGCCAT
DNA 2: ATGGCTGGAGCAAGCCGTTGCACGCCTTTAACTGATCCGCGGCGCTGAAGGCGGAGAGACCAGAAGAGGAGTGGCCACAA
On to B4, for which the binding result with FLAG-CTCF-6xHis [1] is on record as “no binding”.
